How the values were obtained:
[1] = biological target: T1, FcγRIIa R (human, UniProt P12318 34-217); test: SPR; He/Con_2aR divided by He/Con_2b (FcγRIIb as reference)
T1 construct: extracellular domain; also called FcgRIIa R type; 2aR
T1 sequence (looked up): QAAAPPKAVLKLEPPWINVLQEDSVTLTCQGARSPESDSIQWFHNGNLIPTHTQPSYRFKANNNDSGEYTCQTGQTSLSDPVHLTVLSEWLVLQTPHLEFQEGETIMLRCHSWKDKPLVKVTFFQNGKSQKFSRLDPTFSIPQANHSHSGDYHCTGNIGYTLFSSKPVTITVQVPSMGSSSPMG
Protocol: The heterodimerized antibodies He Abs in which one of the H chains was introduced with an alteration were assayed for their binding activities to each activating FcγR and inhibitory FcγR according to the method described in Example 4. […] The activating FcγRs in FIGS. 26, 27, 28, and 29 are FcγRIa, FcγRIIa (R), FcγRIIa (H), and FcγRIIIa, respectively.
Analysis of interaction between objective antibody and the FcγR was carried out using Biacore T100 (GE Healthcare). HBS-EP+ (GE Healthcare) was used as the running buffer, and the measurement temperature was set to 25° C. Chips produced by immobilizing the antigen peptide by the amine coupling method to a Series S Sencor Chip CM5 (GE Healthcare), or alternatively, chips produced by allowing preliminarily biotinylated antigen peptides to interact with and immobilize onto a Series S Sensor Chip SA (certified) (GE Healthcare) were used. Antibodies of interest were captured onto an antigen peptide-immobilized chip, and allowed to interact to each FcγR diluted with running buffer. To regenerate and repeatedly use the chip, the antibodies captured on the chip were washed off by reacting 10 mM glycine-HCl, pH 1.5.

[2] = biological target: T1, FcγRIIa R; test: SPR (Biacore), antibody captured, FcγR as analyte; relative binding
[3] = biological target: T2, FcγRIIb (human, UniProt P31994 43-217); test: as above
T2 construct: extracellular domain; also called FcgRIIb; 2b
T2 sequence (looked up): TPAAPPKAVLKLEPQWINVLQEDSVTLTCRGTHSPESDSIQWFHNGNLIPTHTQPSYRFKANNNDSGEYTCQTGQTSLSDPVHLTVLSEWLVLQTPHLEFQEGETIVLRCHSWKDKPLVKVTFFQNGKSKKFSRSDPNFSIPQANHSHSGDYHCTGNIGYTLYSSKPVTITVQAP

| Binder | IIaR/IIb (He_2aR/2b) [1] [ratio] | He/Con_2aR (IIaR binding) [2] | He/Con_2b (IIb binding) [3] |
| --- | --- | --- | --- |
| GpH7-A5/GpH7-B3 variant Q295_20W/GpL16-k0 (antibody, human IgG1, kappa, heterodimerized antibody, mutation in the GpH7-B3 chain only; also called He Ab) heavy 1: not shown heavy 2: not shown light: DIVMTQSPLSLPVTPGEPASISCQASESLVHSNRNTYLHWYLQKPGQSPQLLIYKVSNRFSGVPDRFSGSGSGTDFTLKISRVEAEDVGVYYCSQNTHVPPTFGQGTKVEIERTVAAPSVFIFPPSDEQLKSGTASVVCLLNNFYPREAKVQWKVDNALQSGNSQESVTEQDSKDSTYSLSSTLTLSKADYEKHKVYACEVTHQGLSSPVTKSFNRGEC | 1.35 | 60 % of GpH7-A5/GpH7-B3/GpL16-k0 (=100) | 44.4 % of GpH7-A5/GpH7-B3/GpL16-k0 (=100) |
| GpH7-A5/GpH7-B3 variant S298_03V/GpL16-k0 (antibody, human IgG1, kappa, heterodimerized antibody, mutation in the GpH7-B3 chain only; also called He Ab) heavy 1: not shown heavy 2: not shown light: DIVMTQSPLSLPVTPGEPASISCQASESLVHSNRNTYLHWYLQKPGQSPQLLIYKVSNRFSGVPDRFSGSGSGTDFTLKISRVEAEDVGVYYCSQNTHVPPTFGQGTKVEIERTVAAPSVFIFPPSDEQLKSGTASVVCLLNNFYPREAKVQWKVDNALQSGNSQESVTEQDSKDSTYSLSSTLTLSKADYEKHKVYACEVTHQGLSSPVTKSFNRGEC | 1.34 | 86.3 % of GpH7-A5/GpH7-B3/GpL16-k0 (=100) | 64.5 % of GpH7-A5/GpH7-B3/GpL16-k0 (=100) |
| GpH7-A5/GpH7-B3 variant S298_04F/GpL16-k0 (antibody, human IgG1, kappa, heterodimerized antibody, mutation in the GpH7-B3 chain only; also called He Ab) heavy 1: not shown heavy 2: not shown light: DIVMTQSPLSLPVTPGEPASISCQASESLVHSNRNTYLHWYLQKPGQSPQLLIYKVSNRFSGVPDRFSGSGSGTDFTLKISRVEAEDVGVYYCSQNTHVPPTFGQGTKVEIERTVAAPSVFIFPPSDEQLKSGTASVVCLLNNFYPREAKVQWKVDNALQSGNSQESVTEQDSKDSTYSLSSTLTLSKADYEKHKVYACEVTHQGLSSPVTKSFNRGEC | 1.29 | 84 % of GpH7-A5/GpH7-B3/GpL16-k0 (=100) | 65.4 % of GpH7-A5/GpH7-B3/GpL16-k0 (=100) |
| GpH7-A5/GpH7-B3 variant S298_07I/GpL16-k0 (antibody, human IgG1, kappa, heterodimerized antibody, mutation in the GpH7-B3 chain only; also called He Ab) heavy 1: not shown heavy 2: not shown light: DIVMTQSPLSLPVTPGEPASISCQASESLVHSNRNTYLHWYLQKPGQSPQLLIYKVSNRFSGVPDRFSGSGSGTDFTLKISRVEAEDVGVYYCSQNTHVPPTFGQGTKVEIERTVAAPSVFIFPPSDEQLKSGTASVVCLLNNFYPREAKVQWKVDNALQSGNSQESVTEQDSKDSTYSLSSTLTLSKADYEKHKVYACEVTHQGLSSPVTKSFNRGEC | 1.28 | 90.1 % of GpH7-A5/GpH7-B3/GpL16-k0 (=100) | 70.6 % of GpH7-A5/GpH7-B3/GpL16-k0 (=100) |
| GpH7-A5/GpH7-B3 variant S298_05P/GpL16-k0 (antibody, human IgG1, kappa, heterodimerized antibody, mutation in the GpH7-B3 chain only; also called He Ab) heavy 1: not shown heavy 2: not shown light: DIVMTQSPLSLPVTPGEPASISCQASESLVHSNRNTYLHWYLQKPGQSPQLLIYKVSNRFSGVPDRFSGSGSGTDFTLKISRVEAEDVGVYYCSQNTHVPPTFGQGTKVEIERTVAAPSVFIFPPSDEQLKSGTASVVCLLNNFYPREAKVQWKVDNALQSGNSQESVTEQDSKDSTYSLSSTLTLSKADYEKHKVYACEVTHQGLSSPVTKSFNRGEC | 1.34 | 16 % of GpH7-A5/GpH7-B3/GpL16-k0 (=100) | 11.9 % of GpH7-A5/GpH7-B3/GpL16-k0 (=100) |
| GpH7-A5/GpH7-B3 variant S298_01G/GpL16-k0 (antibody, human IgG1, kappa, heterodimerized antibody, mutation in the GpH7-B3 chain only; also called He Ab) heavy 1: not shown heavy 2: not shown light: DIVMTQSPLSLPVTPGEPASISCQASESLVHSNRNTYLHWYLQKPGQSPQLLIYKVSNRFSGVPDRFSGSGSGTDFTLKISRVEAEDVGVYYCSQNTHVPPTFGQGTKVEIERTVAAPSVFIFPPSDEQLKSGTASVVCLLNNFYPREAKVQWKVDNALQSGNSQESVTEQDSKDSTYSLSSTLTLSKADYEKHKVYACEVTHQGLSSPVTKSFNRGEC | 1.23 | 98.8 % of GpH7-A5/GpH7-B3/GpL16-k0 (=100) | 80.1 % of GpH7-A5/GpH7-B3/GpL16-k0 (=100) |
| GpH7-A5/GpH7-B3 variant S298_02A/GpL16-k0 (antibody, human IgG1, kappa, heterodimerized antibody, mutation in the GpH7-B3 chain only; also called He Ab) heavy 1: not shown heavy 2: not shown light: DIVMTQSPLSLPVTPGEPASISCQASESLVHSNRNTYLHWYLQKPGQSPQLLIYKVSNRFSGVPDRFSGSGSGTDFTLKISRVEAEDVGVYYCSQNTHVPPTFGQGTKVEIERTVAAPSVFIFPPSDEQLKSGTASVVCLLNNFYPREAKVQWKVDNALQSGNSQESVTEQDSKDSTYSLSSTLTLSKADYEKHKVYACEVTHQGLSSPVTKSFNRGEC | 1.24 | 91.2 % of GpH7-A5/GpH7-B3/GpL16-k0 (=100) | 73.4 % of GpH7-A5/GpH7-B3/GpL16-k0 (=100) |
